B1: OR4K15 (parent)
chain: GUUAACGGUCAUAGGCCAUGGAAACUAGGAGCACCAUUUCGCUGCCAGUGAAGAAAUGAACAAAGAAAAUCUGGGCCAGGCAGGCAUCAAAAGAAAUAGUCUUGCGCUCAACCAGAAAGUCUGUAAUCAUUUUAAGGGUA

Variants of: B1
Test: self-cleavage, relative activity (ratio to wild type); higher = more cleavage; in vitro, sequencing; the parent is a self-cleaving ribozyme

Row | Variant | self-cleavage
1 | GUUAACGGUCAUAGGCCAGGGAAACUAGGAGCACCAUUUCGCUGCCAGUGAAGAAAUGAACAAAGAAAAUCUGGGCCAGGCAGGCAUCAAAAGAAAUAGUCUUGCGCUCAACCUGAAAGUCUGUAAUCAUUUUAAGGGUA | 0.1
2 | GUUAACGGUCAUAGGCCACGGAAACUAGGAGCACCAUUUCGCUGCCAGUGAAGAAAUGAACAAAGAAAAUCUGGGCCAGGCAGGCAUCAAAAGAAAUAGUCUUGCGCUCAACCAGAAAGUCUGUAAUCAUUUUAAGGGCA | 1.58
3 | GUUAACGGUCAUAGGCCACGGAAACUAGGAGCACCAUUUCGCUGCCAGUGAAGAAAUGAACAAAGAAAAUCUGGGCCAGGCAGGCAUCAAAAGAAAUAGACUUGCGCUCAACCAGAAAGUCUGUAAUCAUUUUAAGGGUA | 0.71
4 | GUUAACGGUCAUAGGCCACGGAAACUAGGAGCACCAUUUCGCUGCCAGUGAAGAAAUGAACAAAGAAAAUCUGGGCCAGGCAGGCAUCAAAAGAAAUAGCCUUGCGCUCAACCAGAAAGUCUGUAAUCAUUUUAAGGGUA | 1.97
5 | GUUAACGGUCAUAGGCCAGGGAAACUAGGAGCACCAUUUCGCUGCCAGUGUAGAAAUGAACAAAGAAAAUCUGGGCCAGGCAGGCAUCAAAAGAAAUAGUCUUGCGCUCAACCAGAAAGUCUGUAAUCAUUUUAAGGGUA | 1.46
6 | GUUAACGGUCAUAGGCCAGGGAAACUAGGAGCACCAUUUCGCUGCCAGUGGAGAAAUGAACAAAGAAAAUCUGGGCCAGGCAGGCAUCAAAAGAAAUAGUCUUGCGCUCAACCAGAAAGUCUGUAAUCAUUUUAAGGGUA | 0.33
7 | GUUAACGGUCAUAGGCCACGGAAACUAGGAGCACCAUUUCGCUGCCAGUGAAGAAAUGAACAAAGAAAAUCUGGGCCAGGCAGGCAUCAAAAGAAAUAGUCUUGCGCUCAACCAGAAAGUCUGUAAUCAUCUUAAGGGUA | 1.14
8 | GUUAACGGUCAUAGGCCAUAGAAACUAGGAGCACCAUUUCGCUGCCAGUGAUGAAAUGAACAAAGAAAAUCUGGGCCAGGCAGGCAUCAAAAGAAAUAGUCUUGCGCUCAACCAGAAAGUCUGUAAUCAUUUUAAGGGUA | 1.8
9 | GUUAACGGUCAUAGGCCACGGAAACUAGGAGCACCAUUUCGCCGCCAGUGAAGAAAUGAACAAAGAAAAUCUGGGCCAGGCAGGCAUCAAAAGAAAUAGUCUUGCGCUCAACCAGAAAGUCUGUAAUCAUUUUAAGGGUA | 0.54
10 | GUUAACGGUCAUAGGCCAGGGAAACUAGGAGCACCAUUUCGCUGCCAGUGAAGAAAUGAGCAAAGAAAAUCUGGGCCAGGCAGGCAUCAAAAGAAAUAGUCUUGCGCUCAACCAGAAAGUCUGUAAUCAUUUUAAGGGUA | 1.61
11 | GUUAACGGUCAUAGGCCACGGAAACUAGGAGCACCAUUUCGCUGCCAGUGAAGAAACGAACAAAGAAAAUCUGGGCCAGGCAGGCAUCAAAAGAAAUAGUCUUGCGCUCAACCAGAAAGUCUGUAAUCAUUUUAAGGGUA | 1.37
12 | GUUAACGGUCAUAGGCCACGGAAACUAGGAGCACCAUUUCGCUGCCAGUGAAGAAAAGAACAAAGAAAAUCUGGGCCAGGCAGGCAUCAAAAGAAAUAGUCUUGCGCUCAACCAGAAAGUCUGUAAUCAUUUUAAGGGUA | 1.21
13 | GUUAACGGUCAUAGGCCACGGAAACUAGGAGCACCAUUUCGCUGCCAGUGAAGAAAUGAACAAAGAAAAUCUGGGCCAGGCAGGCAUCAAAAGAAAUAGUCAUGCGCUCAACCAGAAAGUCUGUAAUCAUUUUAAGGGUA | 1.29
14 | GUUAACGGUCAUAGGCCAGGGAAACUAGGAGCACCAUUUCGCUGCCAGUGAAGAAAUGAACAAAGAAAAUCUGGGCCAGGCAGGCAUCAAAAGAAAUAGUCUUGCGCUCAACCAGAAAGUCUGUAGUCAUUUUAAGGGUA | 1.18
15 | GUUAACGGUCAUAGGCCAGGGAAACUAGGAGCACCAUUUCGCUGCCAGUGAAGAAAUGAACAAAGAAAAUCUGGGCCAGGCAGGCAUCAAAAGUAAUAGUCUUGCGCUCAACCAGAAAGUCUGUAAUCAUUUUAAGGGUA | 1.64
16 | GUUAACGGUCAUAGGCCAGGGAAACUAGGAGCACCAUUUCGCUGCCAGUGAAGAAAUGAACAAAGAAAAUCUGGGCCAGGCAGGCAUCAAAAGGAAUAGUCUUGCGCUCAACCAGAAAGUCUGUAAUCAUUUUAAGGGUA | 1.02
17 | GUUAACGGUCAUAGGCCAUAGAAACUAGGAGCACCAUUUCGCUGCCAGUGAAGAAAUGAACGAAGAAAAUCUGGGCCAGGCAGGCAUCAAAAGAAAUAGUCUUGCGCUCAACCAGAAAGUCUGUAAUCAUUUUAAGGGUA | 1.45
18 | GUUAACGGUCAUAGGCCAGGGAAACUAGGAGCACCAUUUCGCUGCCAGUGAAGAAAUGAACAAAGAAAAUCUGGGCCAGGCAGGCAUCAAAAGAAAUAGCCUUGCGCUCAACCAGAAAGUCUGUAAUCAUUUUAAGGGUA | 2.09
19 | GUUAACGGUCAUAGGCCAGGGAAACUAGGAGCACCAUUUCGCUGCCAGUGAAGAAAUGAACAAAGAAAAUCUGGGCCAGGCAGGCAUCAAAAGAAAUAGACUUGCGCUCAACCAGAAAGUCUGUAAUCAUUUUAAGGGUA | 0.74
20 | GUUAACGGUCAUAGGCCAGGGAAACUAGGAGCACCAUUUCGCUGCCAGUGAAGAAAUGAACAAAGAAAAUCUGGGCCAGGCAGGCAUCAAGAGAAAUAGUCUUGCGCUCAACCAGAAAGUCUGUAAUCAUUUUAAGGGUA | 1.28
21 | GUUAACGGUCAUAGGCCAGGGAAACUAGGAGCACCAUUUCGCUGCCAGUGAAGAAAUGAACAAAGAAAAUCUGGGCCAGGCAGGCUUCAAAAGAAAUAGUCUUGCGCUCAACCAGAAAGUCUGUAAUCAUUUUAAGGGUA | 0.68

Row | Variant | self-cleavage
22 | GUUAACGGUCAUAGGCCACGGAAACUAGGAGCACCAUUUCGCUGCCAGUGAAGAAAUGAACAAAGAAAAUCAGGGCCAGGCAGGCAUCAAAAGAAAUAGUCUUGCGCUCAACCAGAAAGUCUGUAAUCAUUUUAAGGGUA | 0.33
23 | GUUAACGGUCAUAGGCCAGGGAAACUAGGAGCACCAUUUAGCUGCCAGUGAAGAAAUGAACAAAGAAAAUCUGGGCCAGGCAGGCAUCAAAAGAAAUAGUCUUGCGCUCAACCAGAAAGUCUGUAAUCAUUUUAAGGGUA | 1.04
24 | GUUAACGGUCAUAGGCCAGGGAAACUAGGAGCACCAUUUCGCUGCCAGUGAAGAAAUGAACAAAGAAAAUCUGGGCCAGGCAGGCAUCAAAAGAAAUAGUCUUGCGCUCAGCCAGAAAGUCUGUAAUCAUUUUAAGGGUA | 0.04
25 | GUUAACGGUCAUAGGCCAGGGAAACUACGAGCACCAUUUCGCUGCCAGUGAAGAAAUGAACAAAGAAAAUCUGGGCCAGGCAGGCAUCAAAAGAAAUAGUCUUGCGCUCAACCAGAAAGUCUGUAAUCAUUUUAAGGGUA | 0.48
26 | GUUAACGGUCAUAGGCCACGGAAACUAGGAGCACCAUUUCGCUGCCAGUGAAGAAAUGAACAAAGAAAAUCUGGGCCAGGCAGGCAUCAAAAGAAAUAGUCUUGCGCUCAACCAGAAAGUCUGUAAUCACUUUAAGGGUA | 0.31
27 | GUUAACGGUCAUAGGCCACGGAAACUAGGAGCACCAUUUCGCUGCCAGUGAAGAAAUGAACAAAGAAAAUCUGGGCCAGGCAGGCAUCAAAAGAAAUAGUCUUGCGCUCAACCAGAAAGUCAGUAAUCAUUUUAAGGGUA | 0.65
28 | GUUAACGGUCAUAGGCCACGGAAACUAGGAGCACCAUUUCGCUGCCAGUGAAGAAAUGAACAAAGAAAAUCUGGGCCAGGCAGGCAUCAAAAGAAAUAGUCUUGCGCUCAACCAGAAAGUCCGUAAUCAUUUUAAGGGUA | 0.46
29 | GUUAACGGUCAUAGGCCAGGGAAACUAGGAGCACCAUUUCGCUGCCUGUGAAGAAAUGAACAAAGAAAAUCUGGGCCAGGCAGGCAUCAAAAGAAAUAGUCUUGCGCUCAACCAGAAAGUCUGUAAUCAUUUUAAGGGUA | 1.08
30 | GUUAACGGUCAUAGGCCAUAGAAACUAGGAGCACCAUUUCGCUGCCAGUGAAGAAAUGAACAAAGAAGAUCUGGGCCAGGCAGGCAUCAAAAGAAAUAGUCUUGCGCUCAACCAGAAAGUCUGUAAUCAUUUUAAGGGUA | 1.37
31 | GUUAACGGUCAUAGGCCAGGGAAACUAGGAGCACCAUUUCGCUGCCAGUGAAGAAAUGAACAAAGAAAAUCUGGGCCUGGCAGGCAUCAAAAGAAAUAGUCUUGCGCUCAACCAGAAAGUCUGUAAUCAUUUUAAGGGUA | 0.89
32 | GUUAACGGUCAUAGGCCAGGGAAACUAGGAGCACCAUUUCGCUGCCAGUGAAGAAAUGAACAAAGAAAAUCUGGGCCCGGCAGGCAUCAAAAGAAAUAGUCUUGCGCUCAACCAGAAAGUCUGUAAUCAUUUUAAGGGUA | 0.39
33 | GUUAACGGUCAUAGGCCAUAGAAACUAGGAGCACCAUUUCGCUGCCAGUGAAGAAAUGAUCAAAGAAAAUCUGGGCCAGGCAGGCAUCAAAAGAAAUAGUCUUGCGCUCAACCAGAAAGUCUGUAAUCAUUUUAAGGGUA | 1.92
34 | GUUAACGGUCAUAGGCCAUAGAAACUAGGAGCACCAUUUCGCUGCCAGUGAAGAAAUGGACAAAGAAAAUCUGGGCCAGGCAGGCAUCAAAAGAAAUAGUCUUGCGCUCAACCAGAAAGUCUGUAAUCAUUUUAAGGGUA | 1.19
35 | GUUAACGGUCAUAGGCCAUAGAAACUAGGAGCACCAUUUCGCUGCCAGUGAAGAAAUGUACAAAGAAAAUCUGGGCCAGGCAGGCAUCAAAAGAAAUAGUCUUGCGCUCAACCAGAAAGUCUGUAAUCAUUUUAAGGGUA | 0.83
36 | GUUAACGGUCAUAGGCCACGGAAACUAGGAGCACCAUUUCGCUGCCAGUGAAGAAAUGAACAAAGAAAAUCUGGGCCAGGCAGGCAUCAAAAGAAAUAGUCUUGCGCUCAACCAGAAAGUCUGUAACCAUUUUAAGGGUA | 0.95
37 | GUUAACGGUCAUAGGCCACGGAAACUAGGAGCACCAUUUCGCUGCCAGUGAAGAAAUGAACAAAGAAAAUCUGGGCCAGGCAGGCAUCAAAAGAAAUAGUCUUGCGCUCAACCAGAAAGUCUGUAAACAUUUUAAGGGUA | 2.17
38 | GUUAACGGUCAUAGGCCACGGAAACUAGGAGCACCAUUUCGCUGCCAGUGAAGAAAUGAACAAAGAAAAUCUGGGCCAGGCAGGCAACAAAAGAAAUAGUCUUGCGCUCAACCAGAAAGUCUGUAAUCAUUUUAAGGGUA | 1.48
39 | GUUAACGGUCAUAGGCCACGGAAACUAGGAGCACCAUUUCGCUGCCAGUGAAGAAAUGAACAAAGAAAAUCUGGGCCAGGCAGGCACCAAAAGAAAUAGUCUUGCGCUCAACCAGAAAGUCUGUAAUCAUUUUAAGGGUA | 1.52
40 | GUUAACGGUCAUAGGCCAUAGAAACUAGGAGCACCAUUUCGCUGCCAGUGAAGGAAUGAACAAAGAAAAUCUGGGCCAGGCAGGCAUCAAAAGAAAUAGUCUUGCGCUCAACCAGAAAGUCUGUAAUCAUUUUAAGGGUA | 1.28
41 | GUUAACGGUCAUAGGCCACGGAAACUAGGAGCACCAUUUCGCUGCCAGUGAAGAAAUGAACAAAGAAAAUCUGGGCCAGGCAGGCAUCAAAAGAAAUAGUCUUGCGCUCAACCAGAAAGUCUGUAAUCAUUAUAAGGGUA | 1.89
